Patent US20170051065A1 (Hoffmann-La Roche, published 2017)

What was measured:
[1] = biological target: human mutant CSF-1R L301S Y969F (human) (UniProt P07333); assay: cell-based or functional assay
[2] = biological target: human wildtype CSF-1R (wt CSF-1R) (human, UniProt P07333 20-972); assay: cell-based or functional assay

**Q.** For “goat polyclonal anti-CSF-1R antibody ab10676 (abcam)”, which Mutant CSF-1R IC30 (cell viability of NIH3T3 mutant CSF-1R spheroids, CellTiterGlo) [1] is on record?
**A.** Its Mutant CSF-1R IC30 (cell viability of NIH3T3 mutant CSF-1R spheroids, CellTiterGlo) is > 20 µg/mL.

**Q.** What about the inhibition of cell viability at 20 µg/ml (mutant CSF-1R spheroids) [1] of the same substance?
**A.** Its inhibition of cell viability at 20 µg/ml (mutant CSF-1R spheroids) is 0%.

**Q.** And the wtCSF-1R IC30 (cell viability of NIH3T3-CSF-1R spheroids, CellTiterGlo) [2]?
**A.** The wtCSF-1R IC30 (cell viability of NIH3T3-CSF-1R spheroids, CellTiterGlo) was 14.2 µg/mL.
